Target: T1, human OX40 on the surface of target cells (HEK293 cells expressing human OX40, jurkat cells engineered to … (human, UniProt P43489 29-277))
T1 construct: whole, on cells; also called huOX40
T1 sequence (looked up): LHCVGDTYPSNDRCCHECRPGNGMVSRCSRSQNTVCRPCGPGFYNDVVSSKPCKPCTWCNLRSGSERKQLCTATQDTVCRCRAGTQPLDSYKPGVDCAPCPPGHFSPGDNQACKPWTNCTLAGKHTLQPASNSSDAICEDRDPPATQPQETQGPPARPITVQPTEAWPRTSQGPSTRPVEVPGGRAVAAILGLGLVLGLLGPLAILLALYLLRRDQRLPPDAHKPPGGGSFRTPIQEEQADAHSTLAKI
Test: flow cytometry on HEK293 cells expressing human OX40, anti-human IgG Fc PE, MFI
Excerpt: The cell lines used were HEK293 cells expressing human OX40 or cyno OX40, jurkat cells, and jurkat cells engineered to express human OX40. […] Frozen target cells were thawed and seeded at 5×10⁴ cells per well.
For live dead cell discrimination cells were stained according to manufacturer's protocol using the LIVE/DEAD™ Fixable Yellow Dead Cell Stain Kit (Molecular Probes, L34959).

- EC50 (read off the curve): ~0.8 nM
B1: bispecific antibody L1 (anti-CD28/anti-OX40) (bispecific antibody, human IgG1, kappa, L234A L235A)
light: not shown
heavy: not shown
chain: DVQLVESGGGVVQPGGSLRLSCAASGSFFSIDTMDWYRQAPGKQRELVTGVTSGGLTNYADSVKGRFTISIDNAKNTVYLQMNSLRPEDTALYYCSARIRTSGGGGWSTYWGQGTLVTVSSGGGGSDKTHTCPPCPAPEAAGGPSVFLFPPKPKDTLMISRTPEVTCVVVDVSHEDPEVKFNWYVDGVEVHNAKTKPREEQYNSTYRVVSVLTVLHQDWLNGKEYKCKVSNKALPAPIEKTISKAKGQPREPQVCTLPPSRDELTKNQVSLSCAVKGFYPSDIAVEWESNGQPENNYKTTPPVLDSDGSFFLVSKLTVDKSRWQQGNVFSCSVMHEALHNRFTQKSLSLSPG
notes: also called L1 & L4 OX40 arm x L1 & L3 & L2 CD28 arm

From US20260092113A1 (Sanofi, published 2026)
